In article PMC5874051, “Gene cloning of a neutral ceramidase from the sphingolipid metabolic pathway based on transcriptome analysis of Amorphophallus muelleri” (PLoS ONE, 2018):

Substrate: CCCCCCCCCCCCC/C=C/[C@@H](O)[C@H](CO)NC(=O)CCCCCCCCCCCNc1ccc([N+](=O)[O-])c2nonc12
Test: hydrolysis of NBD-ceramide, reverse-phase HPLC with DAD detector; Michaelis-Menten and Lineweaver-Burk
Type: biochemical, Amorphophallus muelleri
Settings: 37 °C, 1 h, pH of the kinetic assay not clearly stated, labelled compound

B1: AmCDase (A. muelleri neutral ceramidase) (Amorphophallus muelleri) (protein)
chain: MEASSCSRDYKDHDGSFKIWLCVFLDLVLLNGRLVSRSSDYLVGLASYDITGPAADVNMMGYANAEQIVSGVHFRLRARAFIVAEPGGKRVAFVNLDACMASQLVTIKVLERLKTRYGDLYTAENVAISGIHTHAGPGGYLQYVTYIVTSLGFVRQSFDIIVDGIERSIIQAHDNLRPGSIIVNKGELLDAGVNRSPSAYLNNPYDERKKYSYDVDKEMTLLKFVDDEWGPVGSFNWFATHGTSMSRTNSLISGDNKGAAARFMEDWFKQKSTEPAEHDLFRSDDKLNEIPRRVSIIIPRPRENYKNFTQLASSFPATGGERVTSFLSSTQRVRSIFRQGNRPAFVSAFCQSNCGDVSPNVLGAFCIDTGRPCDFNHSTCNGKNELCYGRGPGYPDEFESTRIIGERQLKKAVDLFDTASEQIKGKVDYRHTYINFSQLKVTIPSSNGSEQVVKTCPAAMGFAFAAGTTDGPGAFDFTQGDEKGNPFWRLVRNLLKTPDKVQVECQLPKPILLDTGEMKQPYDWAPSILPLQILRIGQLVILSVPGEFSTMAGRRLRDAVKMMLTSSGNNEFDNNVHIVIAGLTNTYSQYVTTFEEYEIQRYEGASTLYGPHTLSGYIQEFKKLAAALLNKQTVEPGPAPPDLLKKQMSLLPGVVMDAAPLGFNFGDVSDDVPALSKFKEGDKVSATFWSGCPRNDLLTEGTFALVERLNGVDTWVPAYDDDDFSLRFRWSRPSKFSPYSQATIEWRIPKDAPAGVYRLRHSGATKGLIGCINHFTGTSSAFAVR
notes: Ni-NTA and Superdex 200
Km: 34.51 µM
